Assay results taken from patent US20170137467A1 (CHROMOTEK, published 2017).

B1: BC2 nanobody (BC2-Nb) (VHH)
VHH: QVQLVESGGGLVQPGGSLTLSCTASGFTLDHYDIGWFRQAPGKEREGVSCINNSDDDTYYADSVKGRFTIFMDNAKDTVYLQMNSLKPEDTAIYYCAEARGCKRGRYEYDFWGQGTQVTVSS
notes: immobilised on agarose/sepharose beads in this assay; also called BC2 nanotrap (immobilised form); not shown: C-terminal 6xHis-tag added by pHEN6 vector
B2: BC2-NbR106E (VHH)
VHH: QVQLVESGGGLVQPGGSLTLSCTASGFTLDHYDIGWFRQAPGKEREGVSCINNSDDDTYYADSVKGRFTIFMDNAKDTVYLQMNSLKPEDTAIYYCAEARGCKRGEYEYDFWGQGTQVTVSS
notes: immobilised on beads in this assay; not shown: C-terminal 6xHis-tag added by pHEN6 vector
B3: BC2-NbR106S (VHH)
VHH: QVQLVESGGGLVQPGGSLTLSCTASGFTLDHYDIGWFRQAPGKEREGVSCINNSDDDTYYADSVKGRFTIFMDNAKDTVYLQMNSLKPEDTAIYYCAEARGCKRGSYEYDFWGQGTQVTVSS
notes: as for B2

Assays:
Test in all cases: library pulldown, LC-MS of supernatant; ratio vs GFP-Nb control (0=captured, 1=not captured)
BC2T P1M = target: T1, BC2T P1M (human)
T1 construct: position 1 library, row M
T1 peptide: Ac-MDRKAAVSHWQQ-NH2
Description: (§1) In total, 12 different BC2T libraries displaying all 20 proteinogenic amino acids in one single position of the peptide were used in immunoprecipitation experiments. […] The direct comparison with the GFP-Nb made it possible to determine the quantitative degree of peptide capture without the need of labeled standards. […] The more peptide was captured the more the value approximates 0. It was not possible to discriminate between isoleucine (I) and leucine (L) peptide versions since these peptides are isobaric.
(§2) To investigate the binding specificity of the BC2T and derived mutants peptide libraries for each amino acid position of the sequence […] (SEQ ID NO:4) were synthesized with acetyl and amide groups located at the N-termini or C-termini respectively (Intavis). […] Incubations were performed in 300 μl PBS/0.01% CHAPS for 1 h on a HulaMixer (Life Technologies). Subsequent to a centrifugation step 10 μl supernatant were analyzed in a LC-MS procedure. Peptides were separated using an UltiMate3000 RSLCnano System (Thermo Scientific), composed of a C18 PepMap100μ-Precolumn (300 μm×5 mm; particle size: 5 μm; pore size: 100 Å—Thermo Scientific) and a C18 analytical column (Acclaim Rapid Separation LC (RSLC) Column: 150 mm×5 mm; particle size: 2.2 μm; pore size: 100 Å—Thermo Scientific). A step gradient was applied starting at 8% and ending after 20 min at 30% eluent B (80% acetonitrile, 20% H₂O, 0.1% formic acid).

BC2T A6G = target: T2, BC2T A6G (human)
T2 construct: position 6 library (BC2TA6X), row G
T2 peptide: Ac-PDRKAGVSHWQQ-NH2
Description: as §1, §2

BC2T A6(I/L1) = target: T3, BC2T A6(I/L1)
T3 construct: position 6 library (BC2TA6X), row I/L1
Description: as §1, §2

BC2T A6M = target: T4, BC2T A6M (human)
T4 construct: position 6 library (BC2TA6X), row M
T4 peptide: Ac-PDRKAMVSHWQQ-NH2
Description: as §1, §2

BC2T A6E = target: T5, BC2T A6E (human)
T5 construct: position 6 library (BC2TA6X), row E
T5 peptide: Ac-PDRKAEVSHWQQ-NH2
Description: as §1, §2

BC2T D2A = target: T6, BC2T D2A (human)
T6 construct: position 2 library, row A
T6 peptide: Ac-PARKAAVSHWQQ-NH2
Description: as §1, §2

BC2T D2(I/L2) = target: T7, BC2T D2(I/L2)
T7 construct: position 2 library, row I/L2
Description: as §1, §2

BC2T D2M = target: T8, BC2T D2M (human)
T8 construct: position 2 library, row M
T8 peptide: Ac-PMRKAAVSHWQQ-NH2
Description: as §1, §2

BC2T D2W = target: T9, BC2T D2W (human)
T9 construct: position 2 library, row W
T9 peptide: Ac-PWRKAAVSHWQQ-NH2
Description: as §1, §2

BC2T R3A = target: T10, BC2T R3A (human)
T10 construct: position 3 library (BC2TR3X), row A
T10 peptide: Ac-PDAKAAVSHWQQ-NH2
Description: as §1, §2

BC2T R3V = target: T11, BC2T R3V (human)
T11 construct: position 3 library (BC2TR3X), row V
T11 peptide: Ac-PDVKAAVSHWQQ-NH2
Description: as §1, §2

BC2T R3(I/L2) = target: T12, BC2T R3(I/L2)
T12 construct: position 3 library (BC2TR3X), row I/L2
Description: as §1, §2

BC2T R3M = target: T13, BC2T R3M (human)
T13 construct: position 3 library (BC2TR3X), row M
T13 peptide: Ac-PDMKAAVSHWQQ-NH2
Description: as §1, §2

BC2T P1A = target: T14, BC2T P1A (human)
T14 construct: position 1 library, row A
T14 peptide: Ac-ADRKAAVSHWQQ-NH2
Description: as §1, §2

BC2T R3F = target: T15, BC2T R3F (human)
T15 construct: position 3 library (BC2TR3X), row F
T15 peptide: Ac-PDFKAAVSHWQQ-NH2
Description: as §1, §2

BC2T R3N = target: T16, BC2T R3N (human)
T16 construct: position 3 library (BC2TR3X), row N
T16 peptide: Ac-PDNKAAVSHWQQ-NH2
Description: as §1, §2

BC2T R3K = target: T17, BC2T R3K (human)
T17 construct: position 3 library (BC2TR3X), row K
T17 peptide: Ac-PDKKAAVSHWQQ-NH2
Description: as §1, §2

BC2T P1G = target: T18, BC2T P1G (human)
T18 construct: position 1 library, row G
T18 peptide: Ac-GDRKAAVSHWQQ-NH2
Description: as §1, §2

BC2T R3E = target: T19, BC2T R3E (human)
T19 construct: position 3 library (BC2TR3X), row E
T19 peptide: Ac-PDEKAAVSHWQQ-NH2
Description: as §1, §2

BC2T K4A = target: T20, BC2T K4A (human)
T20 construct: position 4 library, row A
T20 peptide: Ac-PDRAAAVSHWQQ-NH2
Description: as §1, §2

BC2T K4V = target: T21, BC2T K4V (human)
T21 construct: position 4 library, row V
T21 peptide: Ac-PDRVAAVSHWQQ-NH2
Description: as §1, §2

BC2T A5G = target: T22, BC2T A5G (human)
T22 construct: position 5 library, row G
T22 peptide: Ac-PDRKGAVSHWQQ-NH2
Description: as §1, §2

Row | Binder | ratio (BC2T P1M) | ratio (BC2T A6G) | ratio (BC2T A6(I/L1)) | ratio (BC2T A6M) | ratio (BC2T A6E) | ratio (BC2T D2A) | ratio (BC2T D2(I/L2)) | ratio (BC2T D2M) | ratio (BC2T D2W) | ratio (BC2T R3A) | ratio (BC2T R3V) | ratio (BC2T R3(I/L2)) | ratio (BC2T R3M) | ratio (BC2T P1A) | ratio (BC2T R3F) | ratio (BC2T R3N) | ratio (BC2T P1G) | ratio (BC2T K4A) | ratio (BC2T K4V) | ratio (BC2T A5G) | also measured
1 | B1 | 0.2 | 0.7 | 0.7 | 1 | 1.1 | 0.2 | 0.2 | 0.1 | 0.2 | 0.7 | 0.3 | 0.5 | 0.7 | 0.1 | 0.8 | 0.7 | 0.4 | 0.2 | 0.1 | 0.3 | ratio (BC2T R3K): 0.2; ratio (BC2T R3E): 1
2 | B2 | 0.4 | 0.8 | 0.7 | 1 | – | 0.2 | 0.2 | 0.1 | – | 1 | 0.5 | 0.9 | 0.9 | 0.2 | – | – | 0.5 | 0.4 | 0.1 | 0.4 | –
3 | B3 | 0.5 | 0.9 | 0.8 | 0.9 | 1 | 0.4 | 0.3 | 0.2 | 0.3 | 0.9 | 0.7 | 0.9 | 0.9 | 0.3 | 1 | 1 | 0.6 | 0.6 | 0.2 | 0.5 | ratio (BC2T R3K): 0.5; ratio (BC2T R3E): 1
